These results are taken from the nanobody polyreactivity screen of Harvey et al. (2022).

A short description of this data set: yeast display, Sf9 membrane polyspecificity reagent, FACS + sequencing; frameworks hold sequencing errors. Summed up: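 Galactose-induced (36–48 hours) yeast carrying a synthetic nanobody display library were exposed to 10% biotinylated, detergent-solubilized Sf9 membrane reagent at 4 °C for 1 hour. FACS followed streptavidin microbead enrichment, using low and high (top ~1%) gates for expression (anti-HA) and reagent binding (streptavidin). Colony PCR, MiSeq 2 × 250 sequencing and CDR-length filtering followed. Labels for polyreactivity reflect the gate of origin.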
Take “QVQLVESGGGLVQAGGSLLLSCAASGNTFVNNAMGWYRQAPGKERELVAAISRRGGTTYYADSVKGRFTISRDNAKNTVYLKMKSLKPEDTAVYYCAKYGYAFDSWGQGTQVTVSS”: the “polyreactivity (PSR sort gate)” value is “high polyreactivity”.

For the sequence “QVQLVESGGGLVQAGGSLLLSCAASGRIFAYYAMGWYRQAPGKERELVAGISQRGSRTYYADSVKGRFTISRDNAKNTVYLQMNSLKPEDTAVYYCAARDRRSVTMDYWGQGTQVTVSS”, the “polyreactivity (PSR sort gate)” value is listed as “high polyreactivity”.

As for “QVQLVESGGGLVQAGGSLLLSCAASGRIFRPYAMGWYRQAPGKERELVAAISSSGGSTYYADSVKGRFTISRDNAKNTVYLEMNSLKPEDTAVYYCAARITQISYGSEIEHPYYYWGQGTQVTVSS”, the “polyreactivity (PSR sort gate)” value is “high polyreactivity”.

Consider “QVQLVESGGGLVQAGGSLLLSCAASGRILDFYDMGWYRQAPGKERELVAAITNSASTYYADSVKGRFTISRDNAKNTVYLQMNRLKPEDTAVYYCNADLYRGAYYGTYWSDWGYDYWGQGTQVTVSS”, for which the “polyreactivity (PSR sort gate)” value was “low polyreactivity”.

With “QVQLVESGGGLVQAGGSLLLSCAASGSIFGSNAMGWYTQATVKERELVAVITNGGRTYYADSVKGLFTISRDNAKNTVYLQMNSLKPEDTAVYYCAASRVYGWYGSYSTYGSVGQGTQVTVSS”, the “polyreactivity (PSR sort gate)” value was “high polyreactivity”.

Regarding “QVQLVESGGGLVQAGGSLLLSCAASGSIFGWYAMGWYRQAPGKERELVAAISSSDGSTYYADSVKGRFTISRDNPKNTVYLQMNSLKPEDTAVYYCATDSAFTYAQYDYWGQGTQVTVSS”, the “polyreactivity (PSR sort gate)” value is recorded as “low polyreactivity”.

For the sequence “QVQLVESGGGLVQAGGSLLLSCAASGTTFDRNAMGGYRQAPGKEREIVDAIRFGGGSTNYADSVKGRFTISRDNAKNTVYLLMNSLKPEDTAVYYCNAERIWRYKYGYDYWGQGTQVTVSS”, the “polyreactivity (PSR sort gate)” value is recorded as “high polyreactivity”.

For the sequence “QVQLVESGGGLVQAGGSLLLSCDASGGTLDYYVMGWYRQAPGKERELVAAISSSGGSTYYADSVKGRFTISRDNAKNTVYLQMNCLNPEDTAVYYCAGDPSPYGDEYDYWVQGTQVTVSS”, the “polyreactivity (PSR sort gate)” value is recorded as “low polyreactivity”.

For “QVQLVESGGGLVQAGGSLLLSCSASGRIFGVNAMGGYRQAPGKERELVAAISAGGGNTYYADSVKGRFTISRDNAKNTVYLQMNSLKPEDTAVYYCNVQRSLRMDYWGQGTQVTVSS”, the “polyreactivity (PSR sort gate)” value is given as “high polyreactivity”.

For the sequence “QVQLVESGGGLVQAGGSLLLSCSASGRTFAYNAMGLYRQAPGKEREWVASISSSDTSTYYADSVNGRFTISRDNAKNTVYLQMNSLKPVDTAVYYCAADGHPFKGVRYYYWGQGTQVTVSS”, the “polyreactivity (PSR sort gate)” value is “low polyreactivity”.

In the case of “QVQLVESGGGLVQAGGSLLLTCAASSSTFRPKVMGWYRQAPGKERELVAAISNGGRTYYADSLKGRFTISRDNAKNTVYLQMNSLKPEDTAVYYCAARGKTTKYNYWGQGTQVTVSS”, the “polyreactivity (PSR sort gate)” value was “high polyreactivity”.

In the case of “QVQLVESGGGLVQAGGSLPLRCPASGSIFYQYAMGWYRQAPGKVRELVARIRGSTGTTYYADSVKGRFTISRDNAKNTVYLHMNSLKPEDTAVYYCNAARYQGRSRFDYWGQGSQVTVSS”, the “polyreactivity (PSR sort gate)” value is “high polyreactivity”.

Turning to “QVQLVESGGGLVQAGGSLPLSCAASGITLYGYAMGWNRQAPGNERELVPAISRSGSSTYYADSVKGRFTISRDNAKNTVYLQMNILKPEDTAVYYCNVYSGRYWESHKFDSWGQGTQVTVSS”, the “polyreactivity (PSR sort gate)” value is “high polyreactivity”.

“QVQLVESGGGLVQAGGSLPLSCAASGNIFVTYDMGWYRQAPGKERELVASISWNGGSTNYADSVRGLFTISRDNAKNTVYLQMNSLKPEDTAVYYCAAEYWTSYADYRYDYWGQGTQVTVSS”: the “polyreactivity (PSR sort gate)” value was “low polyreactivity”.

In the case of “QVQLVESGGGLVQAGGSLPLSCAASGRIFNGYAMGGYIQAPGKERELVAAICWRGGRTYYADSVKGRFTISRDNAMNTVYLQRNSLKAEDTAVYYCNKDLPPQGQLRNMYYWGQGTIVTVSS”, the “polyreactivity (PSR sort gate)” value is “high polyreactivity”.

In the case of “QVQLVESGGGLVQAGGSLPLSCAASGRIFNYYTMGWYRPAPGKERELVAAISTRGGRTYYADSVKGRFTISRDNAKNSVYFQMNSLKPEDTAVYYCARDIRIRIVYDGIYNYWGQGTQVTVSS”, the “polyreactivity (PSR sort gate)” value is reported as “high polyreactivity”.

Take “QVQLVESGGGLVQAGGSLPLSCAASGRIFYTYAMGWYRQAPGKERELVAAITYRGGSTYYADSVKGRFTISRDNAKNTVYLQMNILIPEDTAVYYCAARPGRGPDSRWRYKYDYWGQGTQVTVSS”: the “polyreactivity (PSR sort gate)” value is reported as “high polyreactivity”.

Turning to “QVQLVESGGGLVQAGGSLPLSCAASGRTIDHYAMGWYRQAPGKERELVAAITSGGSTYYADSVKGRFTISRDNAKNTVYLQMNSLKPEDTAVYYCNKDSSFWGYYIAQVNERDYWGQGTQVTVSS”, the “polyreactivity (PSR sort gate)” value is “low polyreactivity”.

As to “QVQLVESGGGLVQAGGSLPLSCAASGRTYRYYAMGWYRQAPGKERELVAAITRRSGNTNYADSVKGRFTISRDNAKNTVYLQINSLKPEDTALYYCAAVGAKGARYDYWGQGTQVTVSS”, the “polyreactivity (PSR sort gate)” value is recorded as “high polyreactivity”.

Take “QVQLVESGGGLVQAGGSLPLSCAASGSIFQLNAMGWYRQAPGKERELVGSIRDGGSTSYADSVKGRFTISRDNAKNTVYLQMNSLKPADTAVYYCADLKLYIYDYWGQGTQVTVSS”: the “polyreactivity (PSR sort gate)” value is reported as “high polyreactivity”.

With “QVQLVESGGGLVQAGGSLPLSCAASGSIFTYNTMGSYRQAPGKERELVATISWSGGRTYYADSVKGRVTISRDNAKNTVYLQMNSLKPEDTAVYYCAAVYYSYYGYFLPYGYWGQGTQVTVSS”, the “polyreactivity (PSR sort gate)” value was “high polyreactivity”.

With “QVQLVESGGGLVQAGGSLPLSCAASGSIFVGYAMGWYRQAPGKERELVAAITNSGGRTYYADSVKGRFTISRDNAKNTVYLQMNSLKPEDTAVYYCNRVTGKYRYWVGFEYWGQGTQVTVSS”, the “polyreactivity (PSR sort gate)” value is “high polyreactivity”.

Turning to “QVQLVESGGGLVQAGGSLPLSCASSGSTFSTYAMGWYRQAPGKERELVAAIRWSGGSTYYADSVKGRFTLSRDNAKNTVYLLMTSLKPEDTAVYYCAKGIRRWYGGSDYWGQGTQVTVSS”, the “polyreactivity (PSR sort gate)” value is listed as “low polyreactivity”.

On to “QVQLVESGGGLVQAGGSLPLTCAASGRILRAYAMGWYRQAPGNEMELVAAISFSGGSTYYADSVKGRFTISRDYAKNYVYLQINSLKPEDTAVYYCNALYTSYYRPSCMGYWGQGTQVTVSS”, for which the “polyreactivity (PSR sort gate)” value was “high polyreactivity”.

As for “QVQLVESGGGLVQAGGSLRFICAASGFSLYHYAMGWYRQAPGKERELVAAITTSGSRTYYADSVKGRFTISRDTAKITVYLQMNSLKPEDTAVYYCNAVASSTEYDYWGQGTQVTVSS”, the “polyreactivity (PSR sort gate)” value is “high polyreactivity”.

As to “QVQLVESGGGLVQAGGSLRFICAASGNTLNYYTMGWYRQAPGKERELVAAISSSGGSTYYADSVKGRFTISRDNAKNTVYLQMNSLQPEDTAVYYCNASVINEMNYWGQGTQVTVSS”, the “polyreactivity (PSR sort gate)” value was “low polyreactivity”.

In the case of “QVQLVESGGGLVQAGGSLRFSCAASGDTFTSYAMGWYRQAPGKERELVAAISRRGGSTYYADSVKGRFTISRDNAKNTVYLQMNSLKPEDTAVYYCAAKSYSYTEFDYWGQGTQVTVSS”, the “polyreactivity (PSR sort gate)” value is “high polyreactivity”.

Take “QVQLVESGGGLVQAGGSLRFSCAASGFIFVSNAVGWYRQAPGKERELVAAISRRGGRTYYADSVKGRFTISRDNEKNTVYVPMNSLKPEDTAVYDCAADQYRVSHQWYDYWGQGTQVTVSS”: the “polyreactivity (PSR sort gate)” value is reported as “high polyreactivity”.

Regarding “QVQLVESGGGLVQAGGSLRFSCAASGFNFDQNAMGWYRQAPGQERELVAAITRRGGRTYYADSVKGRFTISRDNAKYTVYLQMNSLKPEDTAVYYCAALLPVHHRGYYWGQGTQVTVSS”, the “polyreactivity (PSR sort gate)” value is listed as “high polyreactivity”.

As for “QVQLVESGGGLVQAGGSLRFSCAASGFTIVGNTMGWYRQAPGKERELVASINTNGGSTYYADSVKGRFTISRDNAKNTVYLQMNSLKPEDTAVYYCAKDREDTYFEYEYDYWGQGTQVTVSS”, the “polyreactivity (PSR sort gate)” value is “low polyreactivity”.
